Assay results: US20200055935A1 (AGENCY FOR SCIENCE TECHNOLOGY AND RESEARCH, published 2020)
Residue numbers refer to the chain shown, from its start. Each block holds one binder with its values, some of them ahead of it.

Target: T1, human TIM-3 coupled to Fc (human, UniProt Q8TDQ0 22-200, limits assumed)
T1 construct: Immobilised on the SPR sensor chip; not shown: Fc part
Assay: SPR (ProteOn XPR36), human TIM-3-Fc immobilised, antibody in flow
Experimental: In order to select some leads amongst the ELISA-positive clones, TIM-3 association/dissociation profiles were analysed by Surface Plasmon Resonance (SPR). Briefly, human TIM-3 coupled to Fc was immobilised on sensor chip and the antibodies were then applied as a flow onto the chip. Association and dissociation rates were recorded using a ProteOn XPR36 bioanalyser (Biorad). Nine clones (1B9, 1H9, 1H10, 2C7, 2F4, 2G6, 1D9, 1F4, 2C8) were selected based on their rapid/strong association to TIM-3 and their slow dissociation from the protein (FIG. 5).

B1: anti-TIM-3 antibody clone 1H10 (antibody, V domains shown)
VH: QVQLQQWGAGLLKPSETLSLTCAVYGGSFSGYYWSWIRQPPGKGLEWIGEINHSGSTNYNPSLKSRVTISVDTSKNQFSLKLSSVTAADTAVYYCARGYVAGFDSWGQGTLVTVSS
VL: QSVLTQPPSVSAAPGQKVTISCSGSSSNIGNNYVSWYQQLPGTAPKLLIYGNNWRPSGIPDRFSGSKSGTSATLGITGLQTGDEADYYCDSWDYDYAAGVFGGGTKLTVL
- binding result: binds

B2: anti-TIM-3 antibody clone 1D9 (antibody, V domains shown)
VH: B1 VH with V100Y, F103D, S105Y
VL: B1 VL with D90E, S91A, Y94S, D95A, V100S
- binding result: binds

B3: anti-TIM-3 antibody clone 2F4 (antibody, V domains shown)
VH: B1 VH with F103S, S105A
VL: B1 VL with D90E, A98S
- binding result: binds

Second part, the binder after the results:

- binding result: binds
B4: anti-TIM-3 antibody clone 2G6 (antibody, V domains shown)
VH: B1 VH
VL: B1 VL with Y94S, D95S, Y96D, A97S, A98S

- binding result: binds
B5: anti-TIM-3 antibody clone 1F4 (antibody, V domains shown)
VH: B1 VH with F103Y, S105Y
VL: B1 VL with Y94A, D95A, Y96L, A97S

- binding result: binds
B6: anti-TIM-3 antibody clone 1B9 (antibody, V domains shown)
VH: B1 VH with F103S, S105A
VL: B1 VL with D90E, S91A, D95Y, Y96V, V100Y
notes: also called 169

- binding result: binds
B7: anti-TIM-3 antibody clone 2C7 (antibody, V domains shown)
VH: B1 VH with F103Y, S105Y
VL: B1 VL with Y94S, D95Y, Y96L

- binding result: binds
B8: anti-TIM-3 antibody clone 1H9 (antibody, V domains shown)
VH: B1 VH with S105D
VL: B1 VL with Y94S, D95A, Y96D, A98S
